Data: paper PMC10727010 (Structure (London, England : 1993), 2023)

Assays:
[1] = target: uniformly 2H,13C,15N-labelled proliferating cell nuclear antigen (PCNA), used in NMR (human, UniProt P12004 1-259, uniformly 2H,13C,15N enriched); test: NMR titration
PCNA = conditions: PIP or APIM mutated; local ultraviolet irradiation; ref [5]; cited from earlier work

Chain of uniformly 2H,13C,15N-labelled proliferating cell nuclear antigen (PCNA), used in NMR (P12004 1-259): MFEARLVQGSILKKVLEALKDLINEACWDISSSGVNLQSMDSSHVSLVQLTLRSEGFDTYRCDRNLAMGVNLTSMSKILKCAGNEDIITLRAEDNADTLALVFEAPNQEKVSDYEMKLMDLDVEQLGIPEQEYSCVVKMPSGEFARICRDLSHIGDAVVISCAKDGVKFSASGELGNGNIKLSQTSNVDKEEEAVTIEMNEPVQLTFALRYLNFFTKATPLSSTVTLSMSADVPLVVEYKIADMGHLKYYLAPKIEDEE

B1: FBH1PIP peptide (residues 55-68 of F-box DNA helicase 1) (peptide)
peptide: GSQRCIPEFFLAGK
[1]
  Kd: 7.8 µM

B2: FBH1APIM peptide (residues 805-815 of F-box DNA helicase 1) (peptide)
peptide: KDKFIRRWVHK
[1]
  Kd: 276 µM

B3: F-box DNA helicase 1 (protein, UniProt Q8NFZ0 1-1043, looked up)
F-box DNA helicase 1: MRRFKRKHLTAIDCQHLARSHLAVTQPFGQRWTNRDPNHGLYPKPRTKRGSRGQGSQRCIPEFFLAGKQPCTNDMAKSNSVGQDSCQDSEGDMIFPAESSCALPQEGSAGPGSPGSAPPSRKRSWSSEEESNQATGTSRWDGVSKKAPRHHLSVPCTRPREARQEAEDSTSRLSAESGETDQDAGDVGPDPIPDSYYGLLGTLPCQEALSHICSLPSEVLRHVFAFLPVEDLYWNLSLVCHLWREIISDPLFIPWKKLYHRYLMNEEQAVSKVDGILSNCGIEKESDLCVLNLIRYTATTKCSPSVDPERVLWSLRDHPLLPEAEACVRQHLPDLYAAAGGVNIWALVAAVVLLSSSVNDIQRLLFCLRRPSSTVTMPDVTETLYCIAVLLYAMREKGINISNRIHYNIFYCLYLQENSCTQATKVKEEPSVWPGKKTIQLTHEQQLILNHKMEPLQVVKIMAFAGTGKTSTLVKYAEKWSQSRFLYVTFNKSIAKQAERVFPSNVICKTFHSMAYGHIGRKYQSKKKLNLFKLTPFMVNSVLAEGKGGFIRAKLVCKTLENFFASADEELTIDHVPIWCKNSQGQRVMVEQSEKLNGVLEASRLWDNMRKLGECTEEAHQMTHDGYLKLWQLSKPSLASFDAIFVDEAQDCTPAIMNIVLSQPCGKIFVGDPHQQIYTFRGAVNALFTVPHTHVFYLTQSFRFGVEIAYVGATILDVCKRVRKKTLVGGNHQSGIRGDAKGQVALLSRTNANVFDEAVRVTEGEFPSRIHLIGGIKSFGLDRIIDIWILLQPEEERRKQNLVIKDKFIRRWVHKEGFSGFKRYVTAAEDKELEAKIAVVEKYNIRIPELVQRIEKCHIEDLDFAEYILGTVHKAKGLEFDTVHVLDDFVKVPCARHNLPQLPHFRVESFSEDEWNLLYVAVTRAKKRLIMTKSLENILTLAGEYFLQAELTSNVLKTGVVRCCVGQCNNAIPVDTVLTMKKLPITYSNRKENKGGYLCHSCAEQRIGPLAFLTASPEQVRAMERTVENIVLPRHEALLFLVF
PCNA
  co-localization of PCNA and FBH1 on motif mutation: reduced co-localization of PCNA and FBH1 when either PIP or APIM is mutated
